The nanobody polyreactivity screen of Harvey et al. (2022)

Experiment: yeast display, Sf9 membrane polyspecificity reagent, FACS + sequencing; frameworks hold sequencing errors
Outline: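 Nanobodies came from a synthetic yeast display library in Saccharomyces cerevisiae BJ5465, induced with galactose for 36–48 hours and stained for 1 hour at 4 °C with 10% biotinylated, detergent-solubilized Sf9 membrane reagent. Cells were enriched on streptavidin microbeads and then FACS-sorted, with low and high (top ~1%) gates set on anti-HA fluorescence for expression and streptavidin fluorescence for reagent binding. Each polyreactivity label reflects the gate a clone came from. Genes were amplified by colony PCR, sequenced by MiSeq 2 × 250 and filtered by CDR length.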

| Sequence | polyreactivity (PSR sort gate) |
| --- | --- |
| QVQLVESGGGLVQAGGSLRLSCAASGSTLYRYAMGWYRQAPGKERELVAAISSAGSTHYADSVKGRFTISRDNAKNTVYLQMNSLKTEDTAVYYCADKRYLKYGYWGQGTQVTVSS | high polyreactivity |
| QVQLVESGGGLVQAGGSLRLSCAASGSTLYRYAMGWYRQAPGKERELVATIRWSGGSTYYADSVKGRFTISRDNAKNTVYLQMNSLKPEDTAVYYCAKRSSYGSSGRYYYWGQGTQVTVSS | high polyreactivity |
| QVQLVESGGGLVQAGGSLRLSCAASGSTLYSYVMGWYRQAPGKERELVAAIRSSGGSTYYADSVKGRFTISRDNAKNTVYLQMNSLKPEDTAVYYCAKEWKVDVASKFLYHYYYWGQGTQVTVSS | high polyreactivity |
| QVQLVESGGGLVQAGGSLRLSCAASGSTLYWNAMGWYRQAPGKERELVASITSSGGSTYYADSVKGRFTISRDNAKNTVYLQMNSLKPEDTAVYYCATESWWRYSEYYYWGQGTQVTVSS | low polyreactivity |
| QVQLVESGGGLVQAGGSLRLSCAASGSTLYWYAMGWYRQAPGKERELVAGISIGGRTNYADSVKGRFTISRDNAKNTVYLQMNSLKPEDTAVYYCNAENTYLGSRYRPYNYWGQGTQVTVSS | low polyreactivity |
| QVQLVESGGGLVQAGGSLRLSCAASGSTQYKYAMGWNRQAPGKERELVAAISWSGSSTYYADSVKGRFTISRDNAKNTVYLQLNSLKREDTAVYYCAAYPRPYIGYTDGYVWYEFDYWGQGTQVTVSS | low polyreactivity |
| QVQLVESGGGLVQAGGSLRLSCAASGSTQYPYAMGWYRQAPGKERELDAAISWSGGSTYYADSVKGRFTISRDPAQNTVYLQMNSLNPEDTAVYYCAAVYHFQYGAYDYWGQGTQVTVSS | high polyreactivity |
| QVQLVESGGGLVQAGGSLRLSCAASGSTQYSYAMGWYRQAPGKERELVAAINSGSNTYYADSVKGRFTISRDNAKNTVYLQMNSLKPEDTAVYYCAAKGIIYTGYDGARRAYGYWGQGTQVTVSS | high polyreactivity |
| QVQLVESGGGLVQAGGSLRLSCAASGSTRIYDMGCYRQAPAKERELVAAISSTGSTYYADSVKGRFTISRDNAKNTVYLQMNSLKPEDTAVYYCAAARYYRYDRYYSWGQGTQVTVTS | high polyreactivity |
| QVQLVESGGGLVQAGGSLRLSCAASGSTRRYVMGWYRQAPGKERELVAVISRGGSTYYADSVKGRFTISRDNAKNTVNLQMNSLKPEDTAVYYCNVQPVIPRGGDYWGQGTQVTVSS | high polyreactivity |
| QVQLVESGGGLVQAGGSLRLSCAASGSTRYNAMGWYRQAPGKERELVAAINTSGGSTRYADSVKGRFTISRDNAKNPVYLQMNSLKPEDTAVYYCNAGNSIPGVQKVIVHGLDYWGQGTQVTVSS | high polyreactivity |
| QVQLVESGGGLVQAGGSLRLSCAASGSTSDEYAMGWYRPAPGKERELVASISSDDTSTHYADSVKGRFTISRDNAKNTVYLQMNSLKPEDTAVYYCAARNTPAYIDYNYWGQGTQVTVSS | low polyreactivity |
| QVQLVESGGGLVQAGGSLRLSCAASGSTSDINAMGLYRQAPGKERELVAVITDSSNTDYADSVKGRFTISRDNAKNTVYLQMNSLKPEDTAVYYCAADRDEPDPYDYWGQGTQVTVSS | low polyreactivity |
| QVQLVESGGGLVQAGGSLRLSCAASGSTSDIYAMGWYRQAPGKEREFVAAISLTGGTTYYADSVKGRFTISCDNAKNTVYLQMNSLKPEDTAVYYCNADVGWWGYDDDYWGQGTQVTVSS | high polyreactivity |
| QVQLVESGGGLVQAGGSLRLSCAASGSTSGQNAKGWYRQPPGNERELVAAISSSAGSTYADSVKGRFTISRDNAKNTVYLQMNSLKPEDTAVYYCNVPYYYTRGSYGYWGQGTQVTVSS | low polyreactivity |
| QVQLVESGGGLVQAGGSLRLSCAASGSTSKWYAMGWYRQAPGKERELVAAITKTGGRTYYADSVKGRFTFSRDYAKNTVYLQMNSLKPEDTAVYYCAVEYLRGFIVIYDNWGQGTQVTVSS | high polyreactivity |
| QVQLVESGGGLVQAGGSLRLSCAASGSTSPIYAMGWYRQAPGKERELVAAINGVGSTNYADSVKGRFTISRDNAKNTVYLQMNSLKPEDTAVYYCNTRYSPGYQGTEVDYWGKGTQVTVSS | low polyreactivity |
| QVQLVESGGGLVQAGGSLRLSCAASGSTSPNAMGWYRQAPGKERELVAAIWSGGTYYADSVKGRFTISRDNAKNTVYLQMNSLKPEDTAVYYCAVTGVYRGFRYGYWGQGTQVTVSS | low polyreactivity |
| QVQLVESGGGLVQAGGSLRLSCAASGSTSPRNAMGWYRQAPGKERELVAAISSGGRTNYADSVKARFTISRDNAKNTDYLQMNSLKREDTAVYYCAAEVQSTYWGQGTQVTVSS | low polyreactivity |
| QVQLVESGGGLVQAGGSLRLSCAASGSTSQRNAMGWYRQAPGKERELVAAISRSGGSTSYADSVKGRFTISRDNAKNTVYLQMNSLKPEDTAVYYCNTDRRIYRVWYYYWGQGTQVTVSS | high polyreactivity |
| QVQLVESGGGLVQAGGSLRLSCAASGSTSQRNAMGWYRQAPGKERELVAGITTSGGRTYYADSVKGRFTISRDNAKNTVYLQMNSLKPEDTAVYYCAARTQIWKYRGYYSWGQGTQVTVSS | high polyreactivity |
| QVQLVESGGGLVQAGGSLRLSCAASGSTSRGNAMGWYRQAPGKERELVAAISYIGGTTYYADSVKGRFTISRDNAKNTVYLQMNSLKPEDTAVYYCAADLYRSILKPDYDYWGQGTQVTVSS | high polyreactivity |

| Sequence | polyreactivity (PSR sort gate) |
| --- | --- |
| QVQLVESGGGLVQAGGSLRLSCAASGSTSRLNAMGWYRQAPGKERELVAAISGSGGRTYYADSVKGRFTISRDTAKTTVYLQMNSQKPEDTAVYYCNAAYSAKVHPEMYYWGPGTQVTVSS | high polyreactivity |
| QVQLVESGGGLVQAGGSLRLSCAASGSTSSDYAMGWYRQPPGKERELVASISRSGGSTNYADSVKGRFTISRDNAKNTVYLQMNSLKPEDTAVYYCAARQSYRYYWGKGTQVTVSS | high polyreactivity |
| QVQLVESGGGLVQAGGSLRLSCAASGSTSSLYTMGWYRQAPGKERELVAAITRSGGGTYYADSVKGRFTSSRDNAKNTVYLQMNSLKPEDTAVYYCAAVQSEGRMGYWGQGTQVTVSS | high polyreactivity |
| QVQLVESGGGLVQAGGSLRLSCAASGSTSSTYSMGWYRQAPGKERELVATINWDGASTYYADSVKGRFTISRDNAKNTVYLQMNSLIPEDTAVYYCAAQSGAVHFLEDDYWGHGTQVTVSS | low polyreactivity |
| QVQLVESGGGLVQAGGSLRLSCAASGSTSSVYAMGWYRQAPGKEREFVASITRRTGITFYADSVKGRFTISRDNAKNTVYLQMNSLKPEDTAVYYCATRGGYPKGYGYLAFNYWGQGTQVTVSS | high polyreactivity |
| QVQLVESGGGLVQAGGSLRLSCAASGSTSTTYAMGWYRQAPWKERELVAAISWGGTRTYYADSVKGRFTISRDNAKNTVYLQMNSLKPEDTAVYYCNAGRRSSSGHYGYNYWGQGTQVTVSS | high polyreactivity |
| QVQLVESGGGLVQAGGSLRLSCAASGSTSVVNAMGWSRQAPGKERELVAVITISAVSTYYADSVKGRFTISRDNAKNTVYLQMNSLKPEDTAVYYCAARSYVIYDNFEYDYWGQGTQVTVSS | high polyreactivity |
| QVQLVESGGGLVQAGGSLRLSCAASGSTSYDNAMGWYRQAPGKERELDASISSDGSTNYADSVKGRFTISRDNAKNTVYLQMNSLKPEDTAVYYCNVEVTRGLSHDPEYDYWGQGTQVTVSS | low polyreactivity |
| QVQLVESGGGLVQAGGSLRLSCAASGSTSYNAMGWYRQPPGKERELVAAITSSGGRTYYADSVKGRFTISRDNAKNTVYLQMNSLKPEDTAVYYCNAPTSARRQGKDYGYWGQGTQVTVSS | high polyreactivity |
| QVQLVESGGGLVQAGGSLRLSCAASGSTSYPYAMGWYIQAPGQERELVATINYSGARTYYADSVKGRFTISRDNAKNTVYFQMNSLKPEDTAVYYCAATVYWRLEHDYWGQGTQVTVSS | low polyreactivity |
| QVQLVESGGGLVQAGGSLRLSCAASGSTSYRNAMGWYRQAPGIEREFVAAISWSGGSTYYADSVKGRFTISRDNAKNTVYLQMNSLKPEDTAVYYCATTVTQWGQGTQVTVSS | low polyreactivity |
| QVQLVESGGGLVQAGGSLRLSCAASGSTSYRYAMGWYRQAPGKERELVAAIPWISDSTYYADSVKGRFTISRDNAKNTVVLQMNSLKQEDTAVYYCNTDPLVTTVTFNYWGQGTQVTVSS | low polyreactivity |
| QVQLVESGGGLVQAGGSLRLSCAASGSTSYYNAMGWYRQAPGKERELVAAISYSGGRTYYADSVKGRFTISRDNAKNTVYLQMNSLKPEDTAVYYCAKTFRGQPYLRYRYYYWGQGTQVTVSS | high polyreactivity |
| QVQLVESGGGLVQAGGSLRLSCAASGSTVFKNTMGWYRQAPGKEREFVAAIRWSTSRTYYADSVKGRFTISRDNAKNTVYLQMNSLKPEDTAVSYCNAGTSLSRRYPEDYYWGQGTLVTVSS | high polyreactivity |
| QVQLVESGGGLVQAGGSLRLSCAASGSTVGSYAMGWYRQAPGKERELVAAITLRTDSTYYADSVKGRFTISRDNAKNTVYLQMNSLKPEETAVYYCARRYRYGYDYWGQGTQVTVSS | low polyreactivity |
| QVQLVESGGGLVQAGGSLRLSCAASGSTVGVNAMGWYRQAPGKERELVAALSNGDNTYYADSVKGRFTISRDHAKNTVYLQMNSLKPEDTAVYYCAADQYWSWIYYPVVESDYWGQGTQVTVSS | low polyreactivity |
| QVQLVESGGGLVQAGGSLRLSCAASGSTVKYAMGWYRQAPGKERELVAAISSRGGSTSYADSVNGRFTISRDNAKNTVYLQMNSLKPEDTAVYSCARRIRQQRFGGNYWGQGTQVTVSS | high polyreactivity |
| QVQLVESGGGLVQAGGSLRLSCAASGSTVVYNVMGWYRQAPGKEREVVAAFRWRGGSTYADSVKGRFTISRDNAKNTVYLQMNCLKPEDTAVYYCAAGIPRYWYAGHYDYWGQGTQVTVSS | low polyreactivity |
| QVQLVESGGGLVQAGGSLRLSCAASGSTVWWYAMGWDRQAPRKERELVAVITRSSDSTSYADSVKGRFTLSRDNAKNTVFLQMNSLKPEDTAVYYCAALYRSYRYEYYYWGQATQVTVSS | high polyreactivity |
| QVQLVESGGGLVQAGGSLRLSCAASGSTVYAYAMGWYRQAPGKERELVAAIDSGGSTYYADSVKGRFTISRDNAKNTVNLQMNSLKPEDTAVYYCAVRHRYTRAYWGRDYWGQGTQVTVSS | low polyreactivity |
| QVQLVESGGGLVQAGGSLRLSCAASGSTYDPNAMGRYRQAPGKERELVAAISWSGGSTYYADSVKGRFTISRDNAKNTVYLQMYSLKPEDTAVSYCNAQFYDSYSYTNDYWGQGTLVTVSS | low polyreactivity |
